From US20090136500A1 come the findings set out here.

The target in assay [1] is PAI-1 (immobilized antigen of the P-ELISA of Figure 13, species not stated). Put plainly: P-ELISA on immobilized biotin-labeled PAI-1 (species not stated), antibody with EDTA, A450. On the technique in general: An ELISA detects its analyte on a solid surface through an enzyme-linked reagent.
For assay [2], the target named is PAI-1 (antigen of Example 11, species not stated). Put plainly: SPR-type biosensor, 25 C, global 1:1 fit (format for mP-1 not given).
PAI-1 (antigen of Example 11, species not stated), sequence (P05121 24-402): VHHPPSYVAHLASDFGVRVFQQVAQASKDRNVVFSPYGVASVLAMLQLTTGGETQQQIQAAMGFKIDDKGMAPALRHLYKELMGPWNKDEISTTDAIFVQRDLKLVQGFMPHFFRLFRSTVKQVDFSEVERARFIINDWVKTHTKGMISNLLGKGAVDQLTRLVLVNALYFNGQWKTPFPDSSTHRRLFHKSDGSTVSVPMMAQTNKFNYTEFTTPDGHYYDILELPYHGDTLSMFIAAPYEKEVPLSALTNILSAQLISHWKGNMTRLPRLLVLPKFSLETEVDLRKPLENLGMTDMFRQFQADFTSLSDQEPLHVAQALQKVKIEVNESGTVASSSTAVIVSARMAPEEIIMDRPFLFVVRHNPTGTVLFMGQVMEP

PAI-1 (immobilized antigen of the P-ELISA of Figure 13, species not stated), sequence (P05121 24-402): as above

B1: murine monoclonal antibody 33B8 (antibody, V domains shown)
VH: QIQLVQSGPELKKPGKTVTISCKASGYTFTNYGMNWVKQAPGKGLKWMGWINTYTGEPTYTDDFKGRFAFSLDTSASTAYLQISNLKNEDTATYFCAKDVSGFVFDYWGQGTTVTVSS
VL: DIVMTQSPSSLAVSVGEKVTMSCKSSQSLLNIIKQKNCLAWYQQKPGQSPKLLIYWASTRESGVPDRFTGSGSGTDFTLTISSVKAEDLAVYYCQQYYSYPYTFGGGTKLEIK
By EC50 (read off the curve) is commonly meant the concentration giving half of the maximal effect. Broadly, the Kd is the free concentration of one partner at which half of the binding sites on the other are occupied at equilibrium, for simple one-to-one binding. The low end stands for tighter binding, the high end for weaker binding. Usually koff stands for the rate constant with which the complex falls apart. A higher koff goes with fast dissociation. By kon is commonly meant the rate constant with which the complex forms. Low values mean slow association, high ones fast association. B1: the EC50 (read off the curve) in assay [1] was found to be 0.1 µg/mL. In assay [2], this molecule had a Kd of 8.01 nM, a dissociation rate constant (koff) of 0.00314 s⁻¹ and an on-rate constant (kon) of 393000 M⁻¹ s⁻¹.
